Experimental data: paper PMC5431086 (Scientific Reports, 2017)
Positions of bridges follow the written chain, without caps; N, C: chain ends. No end group written: not given here.

Columns and labels:
Experiment in all cases: enzyme inhibition assay (panel of proteases); cyc-LHSPW tested against a panel of cancer-associated proteases (Fig. 5A); conditions not given
[1] = target: trypsin
[2] = target: PSA (UniProt P07288 18-261)
[3] = target: KLK7 (UniProt P49862 23-253)
[4] = target: T1, aminopeptidase A (UniProt Q07075 1-957)
T1 chain: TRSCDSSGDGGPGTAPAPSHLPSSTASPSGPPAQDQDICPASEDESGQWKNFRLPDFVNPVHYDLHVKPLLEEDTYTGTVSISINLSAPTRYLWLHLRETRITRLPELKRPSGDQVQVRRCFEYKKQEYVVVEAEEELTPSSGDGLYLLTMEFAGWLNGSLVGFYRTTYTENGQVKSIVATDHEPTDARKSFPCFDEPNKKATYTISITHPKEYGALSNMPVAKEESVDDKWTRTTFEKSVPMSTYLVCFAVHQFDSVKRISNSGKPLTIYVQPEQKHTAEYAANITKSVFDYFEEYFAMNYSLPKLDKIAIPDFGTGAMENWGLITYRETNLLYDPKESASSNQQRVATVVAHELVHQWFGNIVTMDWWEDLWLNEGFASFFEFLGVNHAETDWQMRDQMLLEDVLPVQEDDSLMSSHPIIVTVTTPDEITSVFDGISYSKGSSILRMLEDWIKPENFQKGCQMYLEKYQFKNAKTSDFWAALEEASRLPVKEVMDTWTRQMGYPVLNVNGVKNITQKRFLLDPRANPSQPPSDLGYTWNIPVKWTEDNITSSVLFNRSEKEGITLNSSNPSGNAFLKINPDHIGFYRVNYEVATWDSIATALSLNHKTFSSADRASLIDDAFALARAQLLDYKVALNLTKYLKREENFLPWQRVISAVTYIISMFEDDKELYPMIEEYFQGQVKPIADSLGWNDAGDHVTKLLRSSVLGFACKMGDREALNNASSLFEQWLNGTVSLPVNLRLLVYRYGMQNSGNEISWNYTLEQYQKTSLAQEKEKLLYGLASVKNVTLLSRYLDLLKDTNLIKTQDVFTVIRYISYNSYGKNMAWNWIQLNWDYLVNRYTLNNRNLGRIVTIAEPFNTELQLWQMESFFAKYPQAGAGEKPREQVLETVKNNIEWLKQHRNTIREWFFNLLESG

[5] = target: FAP (UniProt Q12884 1-760)
FAP, sequence (Q12884 26-760): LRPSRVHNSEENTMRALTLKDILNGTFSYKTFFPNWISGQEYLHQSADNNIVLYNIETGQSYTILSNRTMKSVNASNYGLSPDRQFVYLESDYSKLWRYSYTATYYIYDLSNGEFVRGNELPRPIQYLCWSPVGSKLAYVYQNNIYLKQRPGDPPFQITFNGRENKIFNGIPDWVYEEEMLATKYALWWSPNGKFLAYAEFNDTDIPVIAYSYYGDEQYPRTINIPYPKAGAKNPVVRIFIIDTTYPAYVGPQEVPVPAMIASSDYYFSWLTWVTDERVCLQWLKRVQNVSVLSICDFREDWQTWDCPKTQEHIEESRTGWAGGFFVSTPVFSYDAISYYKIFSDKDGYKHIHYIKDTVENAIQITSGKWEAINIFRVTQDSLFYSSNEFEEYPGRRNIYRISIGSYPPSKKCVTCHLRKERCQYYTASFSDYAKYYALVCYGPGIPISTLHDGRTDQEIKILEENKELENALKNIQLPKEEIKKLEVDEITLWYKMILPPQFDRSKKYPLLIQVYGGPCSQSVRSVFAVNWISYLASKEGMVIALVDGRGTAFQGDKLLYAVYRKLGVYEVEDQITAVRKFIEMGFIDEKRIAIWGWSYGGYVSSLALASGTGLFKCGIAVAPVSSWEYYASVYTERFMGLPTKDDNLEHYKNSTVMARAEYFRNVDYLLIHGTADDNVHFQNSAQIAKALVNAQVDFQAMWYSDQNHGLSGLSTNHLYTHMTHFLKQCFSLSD

Measured: Ki

PSA, sequence (P07288 25-261): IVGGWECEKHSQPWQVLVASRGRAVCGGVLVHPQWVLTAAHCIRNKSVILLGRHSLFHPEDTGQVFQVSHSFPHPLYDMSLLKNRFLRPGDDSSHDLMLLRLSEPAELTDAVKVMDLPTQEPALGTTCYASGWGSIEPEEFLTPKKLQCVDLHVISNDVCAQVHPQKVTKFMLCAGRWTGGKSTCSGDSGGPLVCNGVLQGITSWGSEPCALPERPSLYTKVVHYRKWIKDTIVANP
KLK7, sequence (P49862 30-253): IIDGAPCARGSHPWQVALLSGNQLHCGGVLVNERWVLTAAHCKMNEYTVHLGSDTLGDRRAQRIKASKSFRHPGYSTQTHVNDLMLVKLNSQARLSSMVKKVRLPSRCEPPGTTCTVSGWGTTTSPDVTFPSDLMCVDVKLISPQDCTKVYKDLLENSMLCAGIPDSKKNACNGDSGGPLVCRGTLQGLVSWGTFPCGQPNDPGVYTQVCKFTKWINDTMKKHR

CLHSPWC (disulfide 1-7) [cyc-LHSPW]
> 100 µM: all assays above
